This assay deals with taxol-stabilized microtubules polymerized from tubulin purified from bovine brain (bovine). Put plainly: co-sedimentation.

B1: emerin peptide aa 1–176 (most of the nucleoplasmic domain) (domain or fragment)
chain: MDNYADLSDTELTTLLRRYNIPHGPVVGSTRRLYEKKIFEYETQRRRLSPPSSSAASSYSFSDLNSTRGDADMYDLPKKEDALLYQSKGYNDDYYEESYFTTRTYGEPESAGPSRAVRQSVTSFPDADAFHHQVHDDDLLSSSEEECKDRERPMYGRDSAYQSITHYRPVSASRSS
B1: the stoichiometry N (tubulin heterodimers per emerin) was determined as 8.

B2: His-tagged recombinant emerin peptide corresponding to aa 73–180 (domain or fragment)
chain: MYDLPKKEDALLYQSKGYNDDYYEESYFTTRTYGEPESAGPSRAVRQSVTSFPDADAFHHQVHDDDLLSSSEEECKDRERPMYGRDSAYQSITHYRPVSASRSSLDLS
For the molecule B2, the stoichiometry N (tubulin heterodimers per emerin) worked out at 24.

Source of the values: article PMC2064615.
